Measured values from patent publication US20140134176A1 (Pfizer, published 2014).

B1: MOR8457-mIgG1 (antibody)
heavy: EVQLVESGGGLVQPGGSLRLSCAASGFTFSSYAMSWVRQAPGKGLEWVSYISDDGSLKYYADSVKGRFTISRDNSKNTLYLQMNSLRAEDTAVYYCARHPYWYGGQLDLWGQGTLVTVSSAKTTPPSVYPLAPGSAAQTNSVTLGCLVKGYFPEPVTVTWNSGSLSSGVHTFPAVLQSDLYTLSSSVTVPSSTWPSETVTCNVAHPASSTKVDKKIVPRDCGCKPCICTVPEVSSVFIFPPKPKDVLTITLTPKVTCVVVDISKDDPEVQFSWFVDDVEVHTAQTQPREEQFNSTFRSVSELPIMHQDWLNGKEFKCRVNSAAFPAPIEKTISKTKGRPKAPQVYTIPPPKEQMAKDKVSLTCMITDFFPEDITVEWQWNGQPAENYKNTQPIMDTDGSYFVYSKLNVQKSNWEAGNTFTCSVLHEGLHNHHTEKSLSHSPGK
light: SYELTQPPSVSVAPGQTARISCSGDSLGSYFVHWYQQKPGQAPVLVIYDDSNRPSGIPERFSGSNSGNTATLTISGTQAEDEADYYCSAFTHNSDVFGGGTKLTVLQPKSSPSVTLFPPSSEELETNKATLVCTITDFYPGVVTVDWFTKVDGTPVTQGMETTQPSKQSNNKYMASSYLTLTARAWERHSSYSCQVTHEGHTVEFTKSLSRADCS
notes: Original MOR8457 VH + mouse wild type IgG1 constant; original VL + mouse wild type lambda constant
B2: MOR8457-Fab (Fab, V domains shown)
VH: EVQLVESGGGLVQPGGSLRLSCAASGFTFSSYAMSWVRQAPGKGLEWVSYISDDGSLKYYADSVKGRFTISRDNSKNTLYLQMNSLRAEDTAVYYCARHPYWYGGQLDLWGQGTLVTVSS
VL: SYELTQPPSVSVAPGQTARISCSGDSLGSYFVHWYQQKPGQAPVLVIYDDSNRPSGIPERFSGSNSGNTATLTISGTQAEDEADYYCSAFTHNSDVFGGGTKLTVL
notes: Fab format (HuCAL GOLD, expressed in E. coli); also called Fab-MOR8457

What was measured:
human PDGF-BB [1] = target: T1, human PDGF-BB (human, UniProt P01127 82-190); assay: SPR (Biacore) competition in solution: MOR8457-mIgG1 serially diluted, mixed with human PDGF-BB, 20 h at 2-8 C, mixture injected over PDGFRβ-hIgG1 captured on anti-human IgG; blocked partner PDGFRβ-hIgG1
T1 construct: Recombinant human PDGF-BB homodimer, bought (Biosource PHG0043; R&D Systems); also called hPDGF-BB; huBB
Protocol: MOR8457-mIgG1 was serially diluted in PBS then mixed with […] of human PDGF-BB and incubated for 20 hours at 2-8° C. to reach equilibrium as indicated by the [brackets]. Each MOR8457-mIgG1 and PDGF-BB dilution mixture was then injected over the surface of PDGFRβ-hIgG1 captured by anti-human IgG1 on a CM5 chip. […] Data shown are from one representative experiment of two independent experiments.
Because of the complexity of the 2:1 binding stoichiometry, and also to avoid any potential artifacts introduced by sequential binding on the chip, the competitive binding was further confirmed by neutralizing PDGF-BB with MOR8457 in solution as illustrated by the diagram shown in FIG. 5A. MOR8457-mIgG1 was serially diluted in PBS then mixed with […] of human PDGF-BB and incubated for 20 hours at 2-8° C. to reach equilibrium. Each MOR8457-mIgG1 and PDGF-BB dilution mixture shown between [brackets] in FIG. 5A, was then injected over the surface of PDGFRβ-hIgG1 captured by anti-human IgG1 on a CM5 chip. FIG. 5B depicts a graph showing the concentration response curve of MOR8457 inhibition.

human PDGF-BB [2] = target: T1, human PDGF-BB; assay: SPR (Biacore 2000), antibody captured via anti-mouse IgG, PDGF injected
Protocol: (§1) Anti-human (A-D, I-K) or anti-mouse (E-H) IgG antibodies were immobilized in flow cells of CM5 sensor chips. 1 μg/mL of MOR8457-IKR-hIgG1-3m (A-D), MOR8457-mIgG1 (E-H) or MOR8457-GL-hIgG1-3m (I-K) was injected independently over the respective anti-human or anti-mouse surface for 10 seconds resulting in a stable anti-PDGF surface between 50-100 RU. Different concentration of PDGF proteins, 0.25, 0.5, and 1 nM, was then injected over the antibody surface for 2 minutes at a flow rate of 100 μl/min for binding. The complex was allowed to dissociate for 10 minutes. The surface was regenerated with a 30 second injection of 10 mM magnesium chloride leaving the surface ready for another round of anti-PDGF antibody capture and PDGF binding kinetics. Each of these three antibodies bound tightly to human (A, E, I), mouse (B, F, J) and rat (C, G, K) PDGF-BB. MOR8457-IKR-hIgG1-3m (D) and MOR8457-mIgG1 (H) bound to human PDGF-AB. Each sensorgram shown is one representative of three independent experiments.
(§2) In order to test the specificity and cross species reactivity, the binding affinities of three MOR8457 IgG variants, MOR8457-IKR-hIgG1-3m, MOR8457-mIgG1, and MOR8457-GL-hIgG1-3m, to different human PDGF ligands, including human PDGF-AA, -AB, -DD, as well as rat PDGF-BB (all obtained from R&D systems, Minneapolis, Minn.) and mouse PDGF-BB (Invitrogen, Carlsbad, Calif.) were tested. Briefly, anti-human or anti-mouse IgG (GE Healthcare) antibodies were immobilized in adjacent flow cells of a CM5 sensor chip between 8000-10,000 resonance units (RU) using amine coupling as directed by the manufacturer. Antibodies were diluted into PBS-NET (10 mM Phosphate pH 7.4, 287 mM NaCl, 2.7 mM KCl, 3.2 mM EDTA, 0.01% Tween 20) to 1 μg/mL and injected independently over the respective anti-human or anti-mouse surface for 10 seconds resulting in a stable anti-PDGF surface between 50-100 RU. PDGF proteins were diluted to 1 nM in PBS-NET and serially diluted two-fold to 0.25 nM. Each concentration of PDGF was then injected over the antibody surface for 2 minutes at a flow rate of 100 μl/min. The complex was allowed to dissociate for 10 minutes. The surface was regenerated with a 30 second injection of 10 mM magnesium chloride leaving the surface ready for another round of anti-PDGF antibody capture and PDGF binding kinetics.

human PDGF-AB [3] = target: T2, human PDGF-AB (human, UniProt P04085 87-211, limits assumed); assay: as above
T2 construct: Heterodimer of PDGF-A and PDGF-B, bought; also called huAB; Hu PDGF-AB
Protocol: as §1, §2

mouse PDGF-BB [4] = target: T3, mouse PDGF-BB (mouse, UniProt P31240 82-190); assay: as above
T3 construct: also called muBB; Mu PDGF-BB
Protocol: as §1, §2

rat PDGF-BB [5] = target: T4, rat PDGF-BB (rat, UniProt Q05028 74-182); assay: as above
T4 construct: also called ratBB
Protocol: as §1, §2

human PDGF-BB [6] = target: T1, human PDGF-BB; assay: SPR (Biacore 2000), antibody captured via anti-mouse IgG, PDGF injected; off rate beyond instrument limit
Protocol: as §1, §2

human PDGF-AB [7] = target: T2, human PDGF-AB; assay: as above
Protocol: as §1, §2

mouse PDGF-BB [8] = target: T3, mouse PDGF-BB; assay: as above
Protocol: as §1, §2

rat PDGF-BB [9] = target: T4, rat PDGF-BB; assay: as above
Protocol: as §1, §2

human PDGF-AA [10] = target: T5, human PDGF-AA (human, UniProt P04085 87-211, limits assumed); assay: SPR (Biacore), antibody captured
Protocol: as §2, with “kinetics. Kinetic data were double referenced (Myszka et al., 1999, J. Mol. Recognit. 12 279) using scrubber2 software (Bio-Logic Software), then fit to a 1:1 binding model using Biacore evaluation software version 4.1. The results shown were an average of three independent binding studies.” for “kinetics.”

human PDGF-DD = human PDGF-DD (human, UniProt Q9GZP0 250-370, limits assumed); assay: SPR (Biacore), antibody captured
Protocol: as §2, with “kinetics. Kinetic data were double referenced (Myszka et al., 1999, J. Mol. Recognit. 12 279) using scrubber2 software (Bio-Logic Software), then fit to a 1:1 binding model using Biacore evaluation software version 4.1. The results shown were an average of three independent binding studies.” for “kinetics.”

human PDGF-BB [11] = target: T1, human PDGF-BB; assay: cell-based or functional assay
human PDGF-AA [12] = target: T5, human PDGF-AA; assay: ELISA

T1 sequence (P01127 82-190 limits assumed): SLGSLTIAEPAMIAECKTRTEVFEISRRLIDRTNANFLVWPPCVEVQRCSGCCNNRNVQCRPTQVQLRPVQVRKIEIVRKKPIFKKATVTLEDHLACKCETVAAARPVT
T2 sequence (chain, as listed by the source limits assumed, chain 2 of 2, other chains not shown): as the sequence (P01127 82-190 limits assumed) above
T4 sequence (Q05028 74-182 limits assumed): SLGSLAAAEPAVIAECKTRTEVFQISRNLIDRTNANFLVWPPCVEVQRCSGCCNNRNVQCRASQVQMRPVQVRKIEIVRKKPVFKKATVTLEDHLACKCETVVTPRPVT
T3 sequence (P31240 82-190 limits assumed): as the sequence (Q05028 74-182 limits assumed) above, with V83I, V102I counted along it
human PDGF-DD, sequence (Q9GZP0 250-370 limits assumed): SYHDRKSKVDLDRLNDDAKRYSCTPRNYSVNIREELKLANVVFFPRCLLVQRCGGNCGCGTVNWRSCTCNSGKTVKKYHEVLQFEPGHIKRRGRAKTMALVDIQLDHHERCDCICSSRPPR

Row | Binder | IC50 (read off the curve) (human PDGF-BB [1]) [nM] | kon (human PDGF-BB [2]) [M⁻¹ s⁻¹] | kon (human PDGF-AB [3]) [M⁻¹ s⁻¹] | kon (mouse PDGF-BB [4]) [M⁻¹ s⁻¹] | kon (rat PDGF-BB [5]) [M⁻¹ s⁻¹] | Kd (human PDGF-BB [6]) [nM] | Kd (human PDGF-AB [7]) [nM] | Kd (mouse PDGF-BB [8]) [nM] | Kd (rat PDGF-BB [9]) [nM] | binding result (human PDGF-AA [10]) | binding result (human PDGF-DD) | IC50, inhibition of PDGF-BB-induced PDGF-Rβ Tyr751 phosphorylation (PAE PDGF-Rβ cells) (human PDGF-BB [11]) [nM] | binding result (human PDGF-AA [12])
1 | B1 | ~0.04 | 1.12e+07 | 5.9e+06 | 2.48e+07 | 1.42e+07 | < 0.01 | < 0.01 | < 0.01 | < 0.01 | no binding (tested: 0.25-1 nM PDGF) | no binding (tested: 0.25-1 nM PDGF) | – | –
2 | B2 | – | – | – | – | – | – | – | – | – | – | – | 0.32 | no binding
